Source: PMC12224988, “The MdHB7L–MdICE1L–MdHOS1 Module Fine‐Tunes Apple Cold Response via CBF‐Dependent and CBF‐Independent Pathways”

T1: MdHB7L-HIS (UniProt D9ZJ22 1-236)
T1 sequence: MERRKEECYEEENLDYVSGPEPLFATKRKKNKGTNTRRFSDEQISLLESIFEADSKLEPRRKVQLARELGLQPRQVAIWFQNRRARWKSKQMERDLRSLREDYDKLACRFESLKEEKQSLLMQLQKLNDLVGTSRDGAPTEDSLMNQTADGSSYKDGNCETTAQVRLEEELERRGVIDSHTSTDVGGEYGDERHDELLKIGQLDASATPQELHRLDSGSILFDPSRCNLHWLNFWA

B1: pMdCBF1-HB-P1 (dsDNA)
DNA 1: AAAGCATAGAAATAATTCCAAAACTATTTT
DNA 2: AAAATAGTTTTGGAATTATTTCTATGCTTT
B2: pMdPAP2-2-HB (dsDNA)
DNA 1: GCACCAAGTCCAATTATTGAGCAATTAATG
DNA 2: CATTAATTGCTCAATAATTGGACTTGGTGC
B3: pMdPRX53-1-HB (dsDNA)
DNA 1: AATAGACCTACTAATTGGCTCACATATGCA
DNA 2: TGCATATGTGAGCCAATTAGTAGGTCTATT
B4: pMdPRX52-5-HB (dsDNA)
DNA 1: AATTAAGCTAAATCATTAACAATTTTCATT
DNA 2: AATGAAAATTGTTAATGATTTAGCTTAATT
B5: pMdERD5-4-HB (dsDNA)
DNA 1: TTAAGACTAGCTTAATTGCGAGGATATCAT
DNA 2: ATGATATCCTCGCAATTAAGCTAGTCTTAA
B6: pMdERDL6-7-5-HB (dsDNA)
DNA 1: ATGCAGAATCATTTATCCTTAATTAATCATA
DNA 2: TATGATTAATTAAGGATAAATGATTCTGCAT
B7: pMdERD5-2-HB (dsDNA)
DNA 1: TCTTTTTAGACCCTAATTATAGGGAAAGGG
DNA 2: CCCTTTCCCTATAATTAGGGTCTAAAAAGA
B8: pMdRD26-1-HB (dsDNA)
DNA 1: ATGCGACCATTAATTAAACTTACAAAATGT
DNA 2: ACATTTTGTAAGTTTAATTAATGGTCGCAT
B9: pMdERD5-3-HB (dsDNA)
DNA 1: ATTGTTTGTATTTAATTGTAAATAAAAATA
DNA 2: TATTTTTATTTACAATTAAATACAAACAAT
B10: pMdERDL6-7-2-HB (dsDNA)
DNA 1: CAATATAATTAATTAAAAATTTTAAACTTTTCAACTAATTATGTTAG
DNA 2: CTAACATAATTAGTTGAAAAGTTTAAAATTTTTAATTAATTATATTG
B11: pMdPRX52-2-HB (dsDNA)
DNA 1: TATTAAATCAGAATTATTAAGAGAAAATAA
DNA 2: TTATTTTCTCTTAATAATTCTGATTTAATA
B12: pMdPRX53-2-HB (dsDNA)
DNA 1: AATACGCCTCTAATTATTAGGTGCTTTTTG
DNA 2: CAAAAAGCACCTAATAATTAGAGGCGTATT
B13: pMdPRX53-3-HB (dsDNA)
DNA 1: TAAGTCTTTGTGTAATTAACAAAACAACGA
DNA 2: TCGTTGTTTTGTTAATTACACAAAGACTTA
B14: pMdPAP2-1-HB (dsDNA)
DNA 1: GATGTGTGTTGTAATTAGTTACACGATTCT
DNA 2: AGAATCGTGTAACTAATTACAACACACATC
B15: pMdCBF3-HB-P1 (dsDNA)
DNA 1: AAAAATAAAATGATTAGCCTGGCGCATCTA
DNA 2: TAGATGCGCCAGGCTAATCATTTTATTTTT
B16: pMdCBF1-HB-P4 (dsDNA)
DNA 1: GAAATTAAGTACTAATTGTTCAGTACCAAG
DNA 2: CTTGGTACTGAACAATTAGTACTTAATTTC
B17: pMdERDL6-7-1-HB (dsDNA)
DNA 1: GCATTTTATAATTGTTTATTATTTTTAATTAGAAAAAATC
DNA 2: GATTTTTTCTAATTAAAAATAATAAACAATTATAAAATGC
B18: pMdRD26-3-HB (dsDNA)
DNA 1: ATAGAAATAAATAATTGACGAGATAAATAG
DNA 2: CTATTTATCTCGTCAATTATTTATTTCTAT
B19: pMdERDL6-7-3-HB (dsDNA)
DNA 1: CTTCATATCTTAATCATTCATCATGTATCG
DNA 2: CGATACATGATGAATGATTAAGATATGAAG
B20: pMdCBF3-HB-P2 (dsDNA)
DNA 1: CACTGTCGATTTAAATCATTCATACAGAAA
DNA 2: TTTCTGTATGAATGATTTAAATCGACAGTG
B21: pMdPRX52-3-HB (dsDNA)
DNA 1: CAAATGTAATTAGCATTAATCCCAACTAACTATAAAAATGATTATCCTTG
DNA 2: CAAGGATAATCATTTTTATAGTTAGTTGGGATTAATGCTAATTACATTTG
B22: pMdPRX52-1-HB (dsDNA)
DNA 1: GTTAAACCAATTTAATTAATAAGATCTTAT
DNA 2: ATAAGATCTTATTAATTAAATTGGTTTAAC
B23: pMdERD5-1-HB (dsDNA)
DNA 1: GAACTGCCTATATAATTAACAAGCTTCAGG
DNA 2: CCTGAAGCTTGTTAATTATATAGGCAGTTC
B24: pMdERDL6-7-4-HB (dsDNA)
DNA 1: CTTAAAATTTCTTAATTATCAGTTAACACC
DNA 2: GGTGTTAACTGATAATTAAGAAATTTTAAG
B25: pMdPRX52-4-HB (dsDNA)
DNA 1: CTTGTCCGTAAATGATTGACATTGGTTTAC
DNA 2: GTAAACCAATGTCAATCATTTACGGACAAG
B26: pMdRD26-4-HB (dsDNA)
DNA 1: ATAAATATAATTACCTGTGAGTTGATTATA
DNA 2: TATAATCAACTCACAGGTAATTATATTTAT
B27: pMdRD26-2-HB (dsDNA)
DNA 1: TCATTAAAGAGATAATTATGAAATAAAATA
DNA 2: TATTTTATTTCATAATTATCTCTTTAATGA
B28: pMdCBF1-HB-P2 (dsDNA)
DNA 1: CTATTATTATTAATTACTTTTTTCACATAA
DNA 2: TTATGTGAAAAAAGTAATTAATAATAATAG
B29: pMdERDL6-1-1-HB (dsDNA)
DNA 1: TTAGGATAGTAATTGGTAACTCTCGACTCC
DNA 2: GGAGTCGAGAGTTACCAATTACTATCCTAA
B30: pMdCBF1-HB-P3 (dsDNA)
DNA 1: TAGCAACTAATTAAGTCTTCAATAATTTCTAAAAGCA
DNA 2: TGCTTTTAGAAATTATTGAAGACTTAATTAGTTGCTA

Target: T1, MdHB7L-HIS
Experiment: EMSA; Beyotime Chemiluminescent EMSA Kit per manufacturer; buffer, salt, pH and temperature not given
Details: protein: recombinant; tags: His (pET28a; BamHI/SalI site primers, no stop codon in reverse primer); chain copies: 2; label: biotin; blunt

Row | Binder | binding result
1 | B1 | binds
2 | B2 | binds
3 | B3 | binds
4 | B4 | binds
5 | B5 | binds
6 | B6 | binds
7 | B7 | binds
8 | B8 | binds
9 | B9 | binds
10 | B10 | binds
11 | B11 | binds
12 | B12 | binds
13 | B13 | no binding
14 | B14 | no binding
15 | B15 | binds
16 | B16 | binds
17 | B17 | binds
18 | B18 | binds
19 | B19 | binds
20 | B20 | binds
21 | B21 | binds
22 | B22 | binds
23 | B23 | binds
24 | B24 | binds
25 | B25 | binds
26 | B26 | no binding
27 | B27 | binds
28 | B28 | binds
29 | B29 | binds
30 | B30 | binds
